Test results: patent publication US20160053007A1

Target: DR3 on mouse CD4+ T cells (mouse)
Assay: cell-based or functional assay

Chain of DR3 on mouse CD4+ T cells (mouse) (Q9QZZ6 19-201): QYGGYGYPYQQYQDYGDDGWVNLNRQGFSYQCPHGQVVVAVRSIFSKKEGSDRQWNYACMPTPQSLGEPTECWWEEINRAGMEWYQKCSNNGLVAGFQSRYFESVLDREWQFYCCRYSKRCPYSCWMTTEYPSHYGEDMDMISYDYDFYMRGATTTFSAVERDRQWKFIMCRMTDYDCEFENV

- IL-2 production by activated T cells, increase by TL1A: < 2 fold
- IL-4 production by activated T cells, increase by TL1A: 10 fold
- interferon-γ production by activated T cells, increase by TL1A: < 2 fold
Substance: recombinant mouse TL1A (from UniProt Q5UBV8 76-252) (ligand)
